First the molecules themselves.
T1: human CFHL3-His (ATX-P-58) (human, UniProt Q02985 19-330)
T1 construct: also called human CFHR3 protein; CFHR3; not shown: C-terminal His tag (and linker)
T1 sequence (looked up): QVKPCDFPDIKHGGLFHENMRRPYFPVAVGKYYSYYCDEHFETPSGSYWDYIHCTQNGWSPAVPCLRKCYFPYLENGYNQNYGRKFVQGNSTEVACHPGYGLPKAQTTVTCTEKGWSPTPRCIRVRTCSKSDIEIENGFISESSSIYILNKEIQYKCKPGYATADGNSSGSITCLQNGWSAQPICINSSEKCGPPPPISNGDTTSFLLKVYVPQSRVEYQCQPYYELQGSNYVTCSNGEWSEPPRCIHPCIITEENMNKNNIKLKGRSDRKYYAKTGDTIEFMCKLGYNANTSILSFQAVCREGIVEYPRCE

T2: Human CFHL1-Y402H-His (ATX-P-421) (human)
T2 construct: also called human CFHL-1 (Y402H) protein
T2 chain: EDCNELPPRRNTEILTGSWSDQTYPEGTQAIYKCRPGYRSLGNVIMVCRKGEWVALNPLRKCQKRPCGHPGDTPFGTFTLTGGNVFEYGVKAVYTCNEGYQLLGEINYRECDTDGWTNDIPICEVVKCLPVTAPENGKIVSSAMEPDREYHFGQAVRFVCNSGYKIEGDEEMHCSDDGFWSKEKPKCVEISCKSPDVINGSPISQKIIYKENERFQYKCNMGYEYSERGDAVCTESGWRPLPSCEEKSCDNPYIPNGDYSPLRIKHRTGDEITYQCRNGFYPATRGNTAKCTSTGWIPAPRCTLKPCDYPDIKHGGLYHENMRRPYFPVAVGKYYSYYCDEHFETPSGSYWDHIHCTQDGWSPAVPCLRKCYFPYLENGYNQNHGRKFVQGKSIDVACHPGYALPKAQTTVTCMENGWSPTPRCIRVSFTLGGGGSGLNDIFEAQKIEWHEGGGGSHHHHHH

B1: ATX-P-582 (antibody, human IgG1, kappa, N297A, V domains shown)
VH: QVQLQESGPGLVKPSGTLSLTCAVSGGSISISKWWSWVRQPPGKGLEWIGEIYHTGSTNYHPSLKSRVTISVDKSKNQFYLKLNSVTAADTAVYYCARDELRLGELSPSLDIWGQGTMVTVSS
VL: DIQMTQSPSSLSASVGDRVTITCRASQNINNYLNWFRQKPGKAPKLLIFAASSLQSGVPSRFSGSESGTDFTLTISSLQPEDFATYYCQQSYSTPLTFGGGTKVEIKR
B2: ATX-P-602 (antibody, human IgG1, kappa, N297A, V domains shown)
VH: not shown
VL: EIVLTQSPGTLSLSPGERATLSCRASQSVSSSYLAWYQQKPGQAPRLLIYGASSRATGIPDRFSGSGSGTQFTLTISSLQSEDFAVYYCQQYGSSPWTFGQGTKVDIKR
B3: ATX-P-601 (antibody, human IgG1, kappa, N297A, V domains shown)
VH: QVQLVQSGAEVKKPGASVKVSCKASGYTFTSYYMHWVRQAPGQGLEWMGIINPSGGSTNYAQKFQGRLTMTRDTSTNTVYMELSSLRSEDTAVYYCATDQSGGMDVWGKGTTVTVSS
VL: DIQMTQSPSSLSASVGDRVTITCRASQSINIYLNWYQQKPEKDPKLLIYAASSLQSGVPSRFSGSGSGTDFTLTISNLQPEDFATYYCQQSYSTPITFGQGTRLEIKR
B4: ATX-P-598 (antibody, human IgG1, kappa, N297A, V domains shown)
VH: QVQLQESGPGLVKPSGTLSLTCAVSGGSISSSNWWSWVRQSPGKGLEWIGEIYHSGTTNYNPSLKSRVTISVDKSKNQFSLKLSSATAADTAVYYCARDRLRLGESSSDVFDIWGQGTMVTVSS
VL: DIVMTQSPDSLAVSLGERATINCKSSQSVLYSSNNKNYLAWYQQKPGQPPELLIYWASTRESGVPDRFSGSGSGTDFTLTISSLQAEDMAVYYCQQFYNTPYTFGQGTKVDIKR
B5: ATX-P-560 (antibody, human IgG1, kappa, N297A, V domains shown)
VH: QVQLQQSGPGLVKPSQTLSLTCAISGDSVSSNTAAWNWIRQSPSRGLEWLGRTYYRSKWYNDYAVSVKSRITINPDTSKNQFSLQLSSVTPQDTAIYYCASDNWNNGGPGFDPWGQGTLVTVSS
VL: DIQMTQSPSSVSTSVGDRVTITCRASQGISSWLAWYQQKPGKAPKLLISAASSLQSGVPSRFSGSGSGTDFTLTISTLQPEDFASYYCQQANSFPPTFGQGTRVEIKR
B6: ATX-P-597 (antibody, human IgG1, kappa, N297A, V domains shown)
VH: QVQLVQSGAEVKKPGASVKVSCKASGYTFTNYYMQWVRQAPGQGLEWLGIIDPSGGSTTYAQKFQGRVTMTRDTSTSTVHMELRSLRSEDTAVYYCARDEGTDRPGWGYWGQGTLVTVSS
VL: DIQMTQSPSSLSASIGDRVTITCRASQSISSYLDWYQRKSGKAPKLLIYAASSLQSGVPSRFSGSGSGTDFTLTISSLQPEDFATYYCQQSYSTPLTFGGGTKVDIKR
B7: ATX-P-591 (antibody, V domains shown)
VH: QVQLVQSGAEVKKPGASVKVSCKASGYTFTSYGISWVRQAPGQGLEWMGWISAYNGNTNYAQKLQGRVTMTTDTSTSTAYMELRSLRSDDTAIYYCTRDLRGTAFDYWGQGTPVTVSS
VL: DIQMTQSPSSLSASVGDRVTITCRASQSINTYLNWYQQKPGKAPKLLIYAASSLQSGVPSRFSGSGSGTDFTLTISSLQPEDFATYSCQHSFTTPFTFGPGTKLEIKR
B8: ATX-P-607 (antibody, human IgG1, kappa, N297A, V domains shown)
VH: QVQLVQSGAEVKKPGASVKVSCKASGYTFTSYYMHWVRQAPGQGLEWMGIINPSGGSTSYAQKFQGRVTMTRDTSTNTVYMELSSLRSEDTAVYYCARDPEYSSAFDIWGQGTMVTVSS
VL: B6 VL with I15V, V19G, S30R, D34N, R38Q, S40P, S93R, L96V, G100P

Where a chain is given by its changes, count along the chain named.

The first test concerns the target T1, human CFHL3-His (ATX-P-58). Put plainly: Carterra LSA biosensor, mAb printed on chip, cutoff set by isotype control. The method, then:
(§1) Experiments were also conducted to determine the reactivity of the CFHR4 antibodies with the human CFHR3 protein (FIG. 9). The binding experiments were performed on Carterra LSA with a running buffer of PBS pH 7.40, 1% BSA, 0.05% Tween20. Antibodies were covalently printed on an HC30M chip. Chip was activated with 33 mM s-NHS and 133 mM EDC in 100 mM MES pH 5.5 for 7 minutes. Antibodies at 10 mg/ml in acetic acid buffer pH 4.5 were used for printing for 10 min. The printed chip was then quenched with 1 M ethanolamine pH 8.5 for 7 min. For the reactivity assay, ATX-P-58, human CFHL3-His, at 550 nM was tested with 5 min association followed by 15 min dissociation. Results were processed and analyzed in Carterra LSA Kinetics Software. The data was referenced with the interstitial reference spots and double-referenced to a buffer cycle, and then the responses (nm) after association were reported. Isotype control was used to determine the cutoff response for positive binding.
as §1, with “CFHL-1 (Y402H)” for “CFHR3”, “10).” for “9).”, “ATX-P-421,” for “ATX-P-58,”, “CFHL1-Y402H-His,” for “CFHL3-His,”, “380” for “550”
Take B1: the binding result is on record as “no binding (tested: 550 nM)”.

Turning to B2, the binding result is listed as “no binding (tested: 550 nM)”.

On to B3, for which the binding result is reported as “no binding (tested: 550 nM)”.

With B4, the binding result was “no binding (tested: 550 nM)”.

On to B5, for which the binding result was “no binding (tested: 550 nM)”.

In the case of B6, the binding result is listed as “no binding (tested: 550 nM)”.

For the molecule B7, the binding result was “no binding (tested: 550 nM)”.

With B8, the binding result is recorded as “no binding (tested: 550 nM)”.

Another test deals with T2, Human CFHL1-Y402H-His (ATX-P-421). Described as above. The method, then:
as §1
as §1, with “CFHL-1 (Y402H)” for “CFHR3”, “10).” for “9).”, “ATX-P-421,” for “ATX-P-58,”, “CFHL1-Y402H-His,” for “CFHL3-His,”, “380” for “550”
B2: the binding result is given as “no binding (tested: 380 nM)”.

On to B3, for which the binding result is on record as “no binding (tested: 380 nM)”.

As for B4, the binding result is reported as “no binding (tested: 380 nM)”.

For the molecule B5, the binding result was “no binding (tested: 380 nM)”.

For the molecule B6, the binding result is recorded as “no binding (tested: 380 nM)”.

As for B8, the binding result was “no binding (tested: 380 nM)”.

For another test the target is unchanged. Put plainly: Carterra LSA biosensor, mAb printed on chip, human CFHL1-Y402H-His at 380 nM. The method, then:
as §1, with “CFHL-1 (Y402H)” for “CFHR3”, “10).” for “9).”, “ATX-P-421,” for “ATX-P-58,”, “CFHL1-Y402H-His,” for “CFHL3-His,”, “380” for “550”
For the molecule B1, the binding result is given as “binds”.

For the molecule B7, the binding result is given as “binds”.

Source of the values: patent publication US20250289873A1 (BROADWING BIO, published 2025).
